T1: GFP-Aub (functional and methylated, from fly ovaries) (Drosophila, UniProt O76922 1-866, methylated (sDMAs), positions not given)
T1 construct: Aubergine (Aub), Piwi family protein, Drosophila; full-length; also called full-length Aub; source: purified from fly ovaries with anti-GFP beads
T1 sequence (looked up): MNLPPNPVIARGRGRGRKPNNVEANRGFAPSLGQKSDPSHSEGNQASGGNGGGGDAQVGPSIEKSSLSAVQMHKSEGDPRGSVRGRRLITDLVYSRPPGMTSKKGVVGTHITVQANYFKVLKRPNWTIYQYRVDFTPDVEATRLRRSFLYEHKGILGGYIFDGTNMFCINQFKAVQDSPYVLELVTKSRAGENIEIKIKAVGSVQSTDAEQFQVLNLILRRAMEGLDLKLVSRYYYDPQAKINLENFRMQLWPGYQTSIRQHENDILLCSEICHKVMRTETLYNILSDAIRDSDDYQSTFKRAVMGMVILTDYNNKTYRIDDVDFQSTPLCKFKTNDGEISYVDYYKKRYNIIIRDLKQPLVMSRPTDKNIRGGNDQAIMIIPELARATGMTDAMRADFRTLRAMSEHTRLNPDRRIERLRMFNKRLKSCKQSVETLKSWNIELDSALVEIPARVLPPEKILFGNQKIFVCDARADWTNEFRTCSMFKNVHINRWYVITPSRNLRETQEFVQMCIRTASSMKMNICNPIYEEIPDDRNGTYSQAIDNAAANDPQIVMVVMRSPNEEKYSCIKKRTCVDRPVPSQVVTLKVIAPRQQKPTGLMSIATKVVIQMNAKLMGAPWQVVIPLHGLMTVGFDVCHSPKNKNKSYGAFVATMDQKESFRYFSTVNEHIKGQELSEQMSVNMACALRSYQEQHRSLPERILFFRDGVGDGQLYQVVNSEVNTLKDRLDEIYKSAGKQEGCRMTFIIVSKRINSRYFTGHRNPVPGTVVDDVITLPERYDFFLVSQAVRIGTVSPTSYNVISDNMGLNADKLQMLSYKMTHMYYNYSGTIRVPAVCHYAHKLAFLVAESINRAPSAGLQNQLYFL

B1: methylated Aubergine (sDMA-Aub) (natural protein, Drosophila, UniProt O76922 1-866, looked up)
chain: MNLPPNPVIARGRGRGRKPNNVEANRGFAPSLGQKSDPSHSEGNQASGGNGGGGDAQVGPSIEKSSLSAVQMHKSEGDPRGSVRGRRLITDLVYSRPPGMTSKKGVVGTHITVQANYFKVLKRPNWTIYQYRVDFTPDVEATRLRRSFLYEHKGILGGYIFDGTNMFCINQFKAVQDSPYVLELVTKSRAGENIEIKIKAVGSVQSTDAEQFQVLNLILRRAMEGLDLKLVSRYYYDPQAKINLENFRMQLWPGYQTSIRQHENDILLCSEICHKVMRTETLYNILSDAIRDSDDYQSTFKRAVMGMVILTDYNNKTYRIDDVDFQSTPLCKFKTNDGEISYVDYYKKRYNIIIRDLKQPLVMSRPTDKNIRGGNDQAIMIIPELARATGMTDAMRADFRTLRAMSEHTRLNPDRRIERLRMFNKRLKSCKQSVETLKSWNIELDSALVEIPARVLPPEKILFGNQKIFVCDARADWTNEFRTCSMFKNVHINRWYVITPSRNLRETQEFVQMCIRTASSMKMNICNPIYEEIPDDRNGTYSQAIDNAAANDPQIVMVVMRSPNEEKYSCIKKRTCVDRPVPSQVVTLKVIAPRQQKPTGLMSIATKVVIQMNAKLMGAPWQVVIPLHGLMTVGFDVCHSPKNKNKSYGAFVATMDQKESFRYFSTVNEHIKGQELSEQMSVNMACALRSYQEQHRSLPERILFFRDGVGDGQLYQVVNSEVNTLKDRLDEIYKSAGKQEGCRMTFIIVSKRINSRYFTGHRNPVPGTVVDDVITLPERYDFFLVSQAVRIGTVSPTSYNVISDNMGLNADKLQMLSYKMTHMYYNYSGTIRVPAVCHYAHKLAFLVAESINRAPSAGLQNQLYFL
modifications: symmetrically dimethylated arginines (sDMAs), positions not given
notes: Aubergine (Aub), Piwi family protein, Drosophila; full-length; monomer ~100 kDa; Oligomers migrate at 500-700 kDa; also called sDMA-containing Aub; source: Sf9 or TriEx Sf9 cells, baculovirus, co-expressed with Dart5(Csul) and Vls; for SEC also Ni-NTA); not shown: 3xFLAG, N-terminal, kept
B2: unmethylated Aubergine (natural protein, Drosophila, UniProt O76922 1-866, looked up)
chain: MNLPPNPVIARGRGRGRKPNNVEANRGFAPSLGQKSDPSHSEGNQASGGNGGGGDAQVGPSIEKSSLSAVQMHKSEGDPRGSVRGRRLITDLVYSRPPGMTSKKGVVGTHITVQANYFKVLKRPNWTIYQYRVDFTPDVEATRLRRSFLYEHKGILGGYIFDGTNMFCINQFKAVQDSPYVLELVTKSRAGENIEIKIKAVGSVQSTDAEQFQVLNLILRRAMEGLDLKLVSRYYYDPQAKINLENFRMQLWPGYQTSIRQHENDILLCSEICHKVMRTETLYNILSDAIRDSDDYQSTFKRAVMGMVILTDYNNKTYRIDDVDFQSTPLCKFKTNDGEISYVDYYKKRYNIIIRDLKQPLVMSRPTDKNIRGGNDQAIMIIPELARATGMTDAMRADFRTLRAMSEHTRLNPDRRIERLRMFNKRLKSCKQSVETLKSWNIELDSALVEIPARVLPPEKILFGNQKIFVCDARADWTNEFRTCSMFKNVHINRWYVITPSRNLRETQEFVQMCIRTASSMKMNICNPIYEEIPDDRNGTYSQAIDNAAANDPQIVMVVMRSPNEEKYSCIKKRTCVDRPVPSQVVTLKVIAPRQQKPTGLMSIATKVVIQMNAKLMGAPWQVVIPLHGLMTVGFDVCHSPKNKNKSYGAFVATMDQKESFRYFSTVNEHIKGQELSEQMSVNMACALRSYQEQHRSLPERILFFRDGVGDGQLYQVVNSEVNTLKDRLDEIYKSAGKQEGCRMTFIIVSKRINSRYFTGHRNPVPGTVVDDVITLPERYDFFLVSQAVRIGTVSPTSYNVISDNMGLNADKLQMLSYKMTHMYYNYSGTIRVPAVCHYAHKLAFLVAESINRAPSAGLQNQLYFL
notes: Aubergine (Aub), Piwi family protein, Drosophila; full-length; without sDMAs; source: Sf9 cells lacking dart5/vls bacmid, baculovirus; not shown: 3xFLAG, N-terminal, kept
B3: Tud domain 9 (amino acids 1976-2160 of Tudor) (domain or fragment, Drosophila, UniProt P25823 1976-2160, looked up)
chain: SLAVTTKAIITHVENTSRIYLQFSEKDSLMDIICEKLNGSKLQPKTEKAAVDDMCVVQFADDLEFYRSRILEVLEDDQYKVILIDYGNTTVVDKLYELPQEFTLIKPVAEICSMEPSAIFEKNKALTLTTFDALLDSCKGVVAVEFVNKSASPPVVRLTTKDKRSLKIYEHLQKLVQAELKLIQK
notes: Tudor (Tud) protein, Drosophila, full length 2515 amino acids; Tud domain 9, amino acids 1976-2160; pET SUMO vector; source: E. coli BL21 (DE3), partially purified (Ni-NTA); not shown: His, N-terminal, kept
B4: Tud domain 11 (amino acids 2335-2515 of Tudor) (domain or fragment, Drosophila, UniProt P25823 2335-2515, looked up)
chain: STVTGVQKPLEAELHNCVVVQFDGPMSFYVQMESDVPALEQMTDKLLDAEQDLPAFSDLKEGALCVAQFPEDEVFYRAQIRKVLDDGKCEVHFIDFGNNAVTQQFRQLPEELAKPARYSRHCELDASTISKCDAALLQSFIDTRFSETFQVEILATKGTGTHVVRLFYQSKNISEKLQECQ
notes: Tudor (Tud) protein, Drosophila, full length 2515 amino acids; Tud domain 11, amino acids 2335-2515; pET SUMO vector; source: E. coli BL21 (DE3), partially purified (Ni-NTA); not shown: His, N-terminal, kept
B5: Tud domain 1 (amino acids 1-217 of Tudor) (domain or fragment, Drosophila, UniProt P25823 1-217, looked up)
chain: MNGQARIALPSKVDLYITHVDHVGPYLKVYGHVNRDAASLISERIRNLLPTCFAIEPSWSVERQQALLIPGTFCIFKNINGPAPGDVEYRRIRVVSADLEGQSMRAEIDFVDFGYKRTVDSHDLMFPKQPKLLQNIPLHCFQYIVLGICSEWDQTDLAEVRRLVVNQIVKITVEPTQICDQKFASLRWKDFELNEFLVQQKQIGVSVDKQLMMDHCK
notes: Tudor (Tud) protein, Drosophila, full length 2515 amino acids; Tud domain 1, amino acids 1-217; pET SUMO vector; source: E. coli BL21 (DE3), partially purified (Ni-NTA); not shown: His, N-terminal, kept
B6: Tud domain 6 (amino acids 1299-1484 of Tudor) (domain or fragment, Drosophila, UniProt P25823 1299-1484, looked up)
chain: SFICPYPVVLSSFQALVVYTAKPYRVYVQPQAIVPSMQTLLDNMYEHYKAKGDSLKKFDVGQICAVRSSDGNWYRARISGKDSNAACFEVFYIDYGNTEEIKRDDIKALDAKFYEHASGFAVEINLPIGRPSNDTKLKARISEILEEKVVTIKSIEVRRSHLIADVILENNQSVIDLLKAEKLVPG
notes: Tudor (Tud) protein, Drosophila, full length 2515 amino acids; Tud domain 6, amino acids 1299-1484; pET SUMO vector; source: E. coli BL21 (DE3), partially purified (Ni-NTA); not shown: His, N-terminal, kept
B7: Tud domain 3 (amino acids 592-772 of Tudor) (domain or fragment, Drosophila, UniProt P25823 592-772, looked up)
chain: QLENDDAVEIRFIDSPSNFYVQKVANIGKFEQLMDEMFSYYNANQRVPDQLILGAPCIVKCDQEWYRAEILRVDDSVIVRHVDFGYEQNVKRHLIGHIAEKHLEMPRQAIKCCLKGFENSELSEDKITDQFEMLAEESNIRRRTFSVRIFRIEPDGLNVVNLLAKNLNVMKKLYKLSMPFE
notes: Tudor (Tud) protein, Drosophila, full length 2515 amino acids; Tud domain 3, amino acids 592-772; pET SUMO vector; source: E. coli BL21 (DE3), partially purified (Ni-NTA); not shown: His, N-terminal, kept
B8: Tud domain 4 (amino acids 1002-1192 of Tudor) (domain or fragment, Drosophila, UniProt P25823 1002-1192, looked up)
chain: SLDKPYALQEMKTPSKEAASLSWWLSPFQFYIVPKSVSAKYDNIMRDMREFYRQKQHQPLQLKVGSTVVVRQRKDNAILRATVTACNHMMRKYRVFCVDTGSLITVTSEDIWQLEQRFADPPCMAHRCSFHSVVTNYDPLYIVDRMETFVPVNAKVDCEFVSKEKSNQGSNTSSTCSYTVNIFVNGASLRD
notes: Tudor (Tud) protein, Drosophila, full length 2515 amino acids; Tud domain 4, amino acids 1002-1192; pET SUMO vector; source: E. coli BL21 (DE3), partially purified (Ni-NTA); not shown: His, N-terminal, kept

One data set concerns the molecule itself. Briefly: native gel or EMSA; blue native PAGE (BN-PAGE), NativePAGE 3-12% Bis-Tris gels, of Aub purified by anti-c-Myc immunoaffinity, several concentrations; western blot with anti-Flag antibody.
Details: not given
Turning to B1, the binding result is on record as “binds”. With B2, the binding result is on record as “binds”.

A further data set concerns the target T1, GFP-Aub (functional and methylated, …). Briefly: pull-down; GFP-Aub from fly ovaries held on anti-GFP agarose beads; partially purified His-SUMO Tud domains added; 50 µl reactions, 4 °C, 30 min, binding buffer PBS + 0.05% IGEPAL CA-630; 4 washes; bound domains detected by anti-His-tag western blot. The following applies: both partners purified. On the technique in general: In western blotting, separated proteins are transferred to a membrane and probed.
With B3, the binding result is recorded as “binds”. Regarding B4, the binding result is recorded as “binds”.

As to B5, the binding result is “binds”. Still for that read-out and setting: the result for B6 reads “binds”; that for B7, “binds”; that for B8, “binds”.

The values above are taken from paper PMC6915754, “Protein components of ribonucleoprotein granules from Drosophila germ cells oligomerize and show distinct spatial organization during germline development” (Scientific Reports, 2019).
